According to publication PMC12915131, “Balanced Expression of the Diiron Oxygenase BioE Is Essential for Biotin Homeostasis in Elizabethkingia meningoseptica”:

B1: PbioB probe (dsDNA)
DNA 1: TGCTTTTATCAAACTCATGTGTAATTACTCTGGTAATCTATATGATTAAGATTTAGAAG
DNA 2: CTTCTAAATCTTAATCATATAGATTACCAGAGTAATTACACATGAGTTTGATAAAAGCA
B2: PbioE probe (dsDNA)
DNA 1: TTTTAAATCTGGTACCATTTAAGGTCCGGCAAGATAATAATTTTGCTTCAAAAAAGAG
DNA 2: CTCTTTTTTGAAGCAAAATTATTATCTTGCCGGACCTTAAATGGTACCAGATTTAAAA

Molecular target: BioL (EmBioL), MocR-family repressor (Elizabethkingia meningoseptica, UniProt A0A1T3FDC7 1-495)
Test: EMSA; PLP in protein elution buffer; 5 mM Mg2+; EMSA: 20 mM Tris-HCl pH 8.0, 50 mM KCl, 5 mM MgCl2, 1 mM DTT, 5% glycerol, room temperature 20 min; 5% native PAGE, GelRed stain
Conditions: protein: recombinant; tags: tag-free after Ulp1 cleavage of GST-SUMO; chain copies: 2; blunt

Row | Binder | binding result
1 | B1 | binds
2 | B2 | binds
